Data from patent publication US7169559B2, “LDL receptor-related proteins 1 and 2 and treatment of bone or cartilage conditions” (Fonterra Corporate Research and Development Ltd., priority 2002, dated 2007).

Experiments:
[1] = test system: primary rat osteoblastic cells; assay: endocytosis of lactoferrin observed under confocal microscopy; type: cell-based
Procedure: (§1) Osteoblasts were isolated from 20-day old fetal rat calvariae as previously described (Cornish et al. (1999) Amer. J. Physiol-Endocrinol. Metab. 277:E779–E783). Briefly, calvariae were excised and the frontal and parietal bones, free of suture and periosteal tissue, were collected. After washing, the calvariae were treated twice with 3 mL of 1 mg/mL collagenase for 7 minutes at 37° C. After discarding the supernatants from these two digestions, the calvariae were treated a further twice with 3 mL of 2 mg/mL collagenase (30 mins, 37° C.). The supernatants of the latter two digestions were pooled, centrifuged, and the cells washed. Cells were grown to confluence and then subcultured into 24 well plates. Cells were growth arrested in minimum essential medium (MEM)/0.1% bovine serum albumin for 24 h before harvest.

[2] = test system: cultured osteoblastic cells; assay: osteoblast proliferation (mitogenic/osteogenic effect); type: cell-based, rat, mouse, and human
Procedure: as §1
(§2) The human osteoblast-like osteosarcoma cell line SaOS-2 was maintained in DMEM (GIBCO 12100-046) supplemented with 2.2 g/L NaHCO3, 10% FBS, and 10 ml/L penicillin-streptomycin (GIBCO 15140-122). Cells were plated in 75 cm^2 flasks and when confluent used for total RNA isolation or proliferation assays.

[3] = test system: p42/44 MAP kinase signaling pathway; assay: p42/44 MAP kinase signaling / phosphorylation in osteoblastic cells; type: cell-based
[4] = test system: SaOS-2 cells; assay: proliferation in SaOS-2 cells; type: cell-based, human; conditions: only LRP-1 is expressed in SaOS-2 cells
Procedure: as §2

[5] = test system: LRP-1-null fibroblasts; assay: proliferation in LRP-1-null versus LRP-1+/+ fibroblasts; type: cell-based
[6] = test system: osteoblast; assay: osteoblast differentiation / mineralized bone nodules in long-term osteoblast cultures; type: cell-based
[7] = molecular target: LRP-1 (Homo sapiens, UniProt Q07954); assay: binding of lactoferrin to LRP-1
[8] = molecular target: LRP-2/megalin (Homo sapiens, UniProt P98164); assay: binding of lactoferrin to LRP-2
[9] = test system: chondrocytes; assay: chondrocyte mitogenesis; type: cell-based
[10] = test system: osteoclastogenesis; assay: murine bone marrow culture assay of osteoclastogenesis; type: cell-based
[11] = test system: mature osteoclasts; assay: bone-resorbing activity of mature osteoclasts; type: cell-based
[12] = test system: primary rat osteoblasts; assay: apoptosis induced by serum withdrawal; type: cell-based
Procedure: as §1

[13] = unilateral local hemicalvarial injection in adult mice; type: in vivo

Sequence of LRP-1 (Q07954 20-4544, species assumed): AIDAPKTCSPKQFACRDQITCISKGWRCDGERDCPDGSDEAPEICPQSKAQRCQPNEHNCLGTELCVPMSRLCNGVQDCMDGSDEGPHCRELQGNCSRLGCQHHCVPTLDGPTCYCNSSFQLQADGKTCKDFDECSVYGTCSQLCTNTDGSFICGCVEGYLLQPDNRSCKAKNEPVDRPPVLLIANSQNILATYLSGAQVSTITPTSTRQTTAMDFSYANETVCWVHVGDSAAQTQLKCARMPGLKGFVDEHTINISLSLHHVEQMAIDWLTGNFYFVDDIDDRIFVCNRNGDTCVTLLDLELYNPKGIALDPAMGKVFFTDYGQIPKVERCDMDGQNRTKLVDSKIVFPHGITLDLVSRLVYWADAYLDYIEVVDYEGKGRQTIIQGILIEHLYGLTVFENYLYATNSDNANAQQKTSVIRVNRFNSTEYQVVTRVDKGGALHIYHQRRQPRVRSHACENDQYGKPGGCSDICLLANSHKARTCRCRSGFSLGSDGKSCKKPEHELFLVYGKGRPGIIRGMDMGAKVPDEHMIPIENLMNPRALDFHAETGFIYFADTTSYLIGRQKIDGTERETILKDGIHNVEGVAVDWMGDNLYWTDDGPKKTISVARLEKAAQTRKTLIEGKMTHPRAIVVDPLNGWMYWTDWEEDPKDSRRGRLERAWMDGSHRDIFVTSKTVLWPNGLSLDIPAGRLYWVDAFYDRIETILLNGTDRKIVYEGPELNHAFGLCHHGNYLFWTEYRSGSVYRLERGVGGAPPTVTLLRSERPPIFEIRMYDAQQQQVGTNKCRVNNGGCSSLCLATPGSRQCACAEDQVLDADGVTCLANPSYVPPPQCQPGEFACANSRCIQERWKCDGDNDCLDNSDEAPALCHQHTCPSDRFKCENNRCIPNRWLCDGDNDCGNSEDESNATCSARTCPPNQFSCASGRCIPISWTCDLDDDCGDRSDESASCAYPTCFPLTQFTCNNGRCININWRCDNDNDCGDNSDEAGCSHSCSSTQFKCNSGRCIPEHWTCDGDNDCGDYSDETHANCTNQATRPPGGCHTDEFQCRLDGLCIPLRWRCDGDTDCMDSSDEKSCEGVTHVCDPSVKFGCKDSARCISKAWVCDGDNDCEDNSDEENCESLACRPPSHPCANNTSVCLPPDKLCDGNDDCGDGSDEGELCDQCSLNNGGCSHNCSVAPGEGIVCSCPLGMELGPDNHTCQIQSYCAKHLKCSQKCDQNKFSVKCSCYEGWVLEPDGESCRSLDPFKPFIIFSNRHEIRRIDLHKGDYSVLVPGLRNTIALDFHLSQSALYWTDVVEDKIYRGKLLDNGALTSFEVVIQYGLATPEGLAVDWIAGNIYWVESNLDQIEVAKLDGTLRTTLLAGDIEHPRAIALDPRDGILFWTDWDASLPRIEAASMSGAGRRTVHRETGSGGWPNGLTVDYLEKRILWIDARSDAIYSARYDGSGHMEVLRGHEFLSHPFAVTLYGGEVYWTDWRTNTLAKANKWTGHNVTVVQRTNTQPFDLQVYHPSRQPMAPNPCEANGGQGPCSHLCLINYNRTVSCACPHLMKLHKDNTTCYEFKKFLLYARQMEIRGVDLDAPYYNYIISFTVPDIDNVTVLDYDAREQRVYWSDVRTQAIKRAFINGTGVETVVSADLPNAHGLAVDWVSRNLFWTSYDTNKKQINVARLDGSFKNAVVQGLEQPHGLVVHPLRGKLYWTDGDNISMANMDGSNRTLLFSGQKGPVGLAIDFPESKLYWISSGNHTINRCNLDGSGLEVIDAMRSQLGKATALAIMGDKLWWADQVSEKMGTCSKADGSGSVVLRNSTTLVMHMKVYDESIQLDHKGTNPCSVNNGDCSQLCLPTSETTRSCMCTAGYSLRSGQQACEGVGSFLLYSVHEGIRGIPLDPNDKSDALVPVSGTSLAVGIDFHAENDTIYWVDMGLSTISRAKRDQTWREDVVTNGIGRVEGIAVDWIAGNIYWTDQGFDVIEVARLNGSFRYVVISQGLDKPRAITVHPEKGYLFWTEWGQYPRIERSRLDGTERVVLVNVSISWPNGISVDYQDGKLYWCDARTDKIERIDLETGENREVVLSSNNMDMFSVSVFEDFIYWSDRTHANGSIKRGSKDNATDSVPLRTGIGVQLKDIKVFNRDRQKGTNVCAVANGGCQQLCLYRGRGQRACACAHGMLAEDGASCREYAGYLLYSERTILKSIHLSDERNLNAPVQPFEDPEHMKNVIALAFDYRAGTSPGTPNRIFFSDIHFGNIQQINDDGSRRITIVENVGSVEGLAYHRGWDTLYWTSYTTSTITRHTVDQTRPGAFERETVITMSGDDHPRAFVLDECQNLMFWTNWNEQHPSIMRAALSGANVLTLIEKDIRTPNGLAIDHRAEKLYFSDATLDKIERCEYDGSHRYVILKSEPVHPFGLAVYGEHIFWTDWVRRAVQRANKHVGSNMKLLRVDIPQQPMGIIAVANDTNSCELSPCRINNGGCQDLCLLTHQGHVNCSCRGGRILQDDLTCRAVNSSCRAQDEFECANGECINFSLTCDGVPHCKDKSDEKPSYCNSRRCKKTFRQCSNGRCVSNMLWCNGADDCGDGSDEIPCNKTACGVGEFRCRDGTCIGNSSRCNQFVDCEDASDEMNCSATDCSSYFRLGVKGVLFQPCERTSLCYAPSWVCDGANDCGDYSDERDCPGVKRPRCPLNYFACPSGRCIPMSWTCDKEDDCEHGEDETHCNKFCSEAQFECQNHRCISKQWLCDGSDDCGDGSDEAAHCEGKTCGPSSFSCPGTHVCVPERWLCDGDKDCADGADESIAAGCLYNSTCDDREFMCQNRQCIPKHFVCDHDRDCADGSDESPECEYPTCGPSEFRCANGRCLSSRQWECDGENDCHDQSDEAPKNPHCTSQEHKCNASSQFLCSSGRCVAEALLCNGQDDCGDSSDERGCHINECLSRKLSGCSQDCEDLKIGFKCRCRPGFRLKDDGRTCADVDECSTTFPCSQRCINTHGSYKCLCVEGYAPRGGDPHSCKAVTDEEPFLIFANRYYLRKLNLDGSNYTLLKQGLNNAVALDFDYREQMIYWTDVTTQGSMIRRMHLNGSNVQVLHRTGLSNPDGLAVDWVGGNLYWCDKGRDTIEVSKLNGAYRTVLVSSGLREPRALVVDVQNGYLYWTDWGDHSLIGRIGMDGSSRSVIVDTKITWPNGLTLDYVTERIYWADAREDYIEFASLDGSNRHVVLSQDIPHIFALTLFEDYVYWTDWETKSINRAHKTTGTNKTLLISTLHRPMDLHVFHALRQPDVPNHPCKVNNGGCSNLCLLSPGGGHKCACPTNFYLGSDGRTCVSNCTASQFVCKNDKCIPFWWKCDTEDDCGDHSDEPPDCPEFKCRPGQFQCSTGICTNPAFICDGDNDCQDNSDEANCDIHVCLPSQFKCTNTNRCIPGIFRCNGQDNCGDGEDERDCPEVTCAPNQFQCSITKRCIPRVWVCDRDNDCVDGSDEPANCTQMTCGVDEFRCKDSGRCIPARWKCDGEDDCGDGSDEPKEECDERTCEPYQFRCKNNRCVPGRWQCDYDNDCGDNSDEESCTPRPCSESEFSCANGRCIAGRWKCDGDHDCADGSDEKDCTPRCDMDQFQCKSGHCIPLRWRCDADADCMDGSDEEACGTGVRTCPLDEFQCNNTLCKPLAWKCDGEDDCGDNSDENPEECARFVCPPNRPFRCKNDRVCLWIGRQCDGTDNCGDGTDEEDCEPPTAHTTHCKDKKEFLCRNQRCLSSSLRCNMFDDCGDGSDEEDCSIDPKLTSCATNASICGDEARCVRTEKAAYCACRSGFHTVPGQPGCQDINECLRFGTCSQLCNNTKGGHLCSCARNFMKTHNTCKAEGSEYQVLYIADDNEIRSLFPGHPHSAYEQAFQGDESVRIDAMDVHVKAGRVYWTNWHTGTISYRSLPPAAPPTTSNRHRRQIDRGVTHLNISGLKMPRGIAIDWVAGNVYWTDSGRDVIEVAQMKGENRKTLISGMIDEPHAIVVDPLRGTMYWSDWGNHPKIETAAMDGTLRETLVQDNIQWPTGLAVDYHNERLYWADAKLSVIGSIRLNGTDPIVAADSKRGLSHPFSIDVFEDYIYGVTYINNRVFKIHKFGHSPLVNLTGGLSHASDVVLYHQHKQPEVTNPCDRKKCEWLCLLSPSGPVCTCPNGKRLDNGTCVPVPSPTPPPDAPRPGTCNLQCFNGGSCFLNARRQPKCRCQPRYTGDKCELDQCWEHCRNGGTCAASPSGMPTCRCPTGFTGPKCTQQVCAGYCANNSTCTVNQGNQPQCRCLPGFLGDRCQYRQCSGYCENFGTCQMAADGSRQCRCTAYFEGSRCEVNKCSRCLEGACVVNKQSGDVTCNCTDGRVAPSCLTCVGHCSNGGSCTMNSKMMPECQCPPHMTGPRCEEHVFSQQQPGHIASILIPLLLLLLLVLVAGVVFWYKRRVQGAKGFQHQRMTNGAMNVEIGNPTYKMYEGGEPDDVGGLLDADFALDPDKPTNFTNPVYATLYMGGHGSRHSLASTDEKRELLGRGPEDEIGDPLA

Row | binding to LRP-1 [7] | binding to LRP-2/megalin [8] | Molecule | effect on endocytosis of lactoferrin ([1]; primary rat osteoblastic cells) | effect on lactoferrin-induced osteoblast proliferation ([2]; in the presence of lactoferrin) | effect on lactoferrin-induced MAP kinase phosphorylation ([3]; in the presence of lactoferrin) | proliferation in SaOS-2 cells [4] | proliferation in LRP-1-null fibroblasts compared with LRP-1+/+ cells [5] | osteoblast differentiation [6] | number of mineralized bone nodules ([6]; long-term osteoblast cultures) | endocytosis by primary rat osteoblastic cells [1] | proliferation of cultured osteoblastic cells ([2]; cells of rat, mouse, and human origin) | mitogenic to chondrocytes [9] | osteoclastogenesis [10] | bone-resorbing activity of mature osteoclasts [11] | activation of p42/44 MAP kinase signaling pathway ([3]; osteoblastic cells) | apoptosis induced by serum withdrawal [12] | bone area [13] | indices of bone formation [13]
1 | – | – | RAP: the LRP-1/2-specific inhibitor, receptor-associated protein (RAP) (protein, UniProt P30533 35-357, looked up) Alpha-2-macroglobulin …: YSREKNQPKPSPKRESGEEFRMEKLNQLWEKAQRLHLPPVRLAELHADLKIQERDELAWKKLKLDGLDEDGEKEARLIRNLNVILAKYGLDGKKDARQVTSNSLSGTQEDGLDDPRLEKLWHKAKTSGKFSGEELDKLWREFLHHKEKVHEYNVLLETLSRTEEIHENVISPSDLSDIKGSVLHSRHTELKEKLRSINQGLDRLRRVSHQGYSTEAEFEEPRVIDLWDLAQSANLTDKELEAFREELKHFEAKIEKHNHYQKQLEIAHEKLRHAESVGDGERVSRSREKHALLEGRTKELGYTVKKHLQDLSGRISRARHNEL | abrogates this process | blocked | blocked | – | – | – | – | – | – | – | – | – | – | – | – | –
2 | has been found to bind | has been found to bind | Lactoferrin: an 80 kDa glycoprotein present in milk and epithelial secretions; osteoblast growth factor present in fractionated bovine milk (protein, UniProt P24627 20-708, looked up) Lactotransferrin: APRKNVRWCTISQPEWFKCRRWQWRMKKLGAPSITCVRRAFALECIRAIAEKKADAVTLDGGMVFEAGRDPYKLRPVAAEIYGTKESPQTHYYAVAVVKKGSNFQLDQLQGRKSCHTGLGRSAGWIIPMGILRPYLSWTESLEPLQGAVAKFFSASCVPCIDRQAYPNLCQLCKGEGENQCACSSREPYFGYSGAFKCLQDGAGDVAFVKETTVFENLPEKADRDQYELLCLNNSRAPVDAFKECHLAQVPSHAVVARSVDGKEDLIWKLLSKAQEKFGKNKSRSFQLFGSPPGQRDLLFKDSALGFLRIPSKVDSALYLGSRYLTTLKNLRETAEEVKARYTRVVWCAVGPEEQKKCQQWSQQSGQNVTCATASTTDDCIVLVLKGEADALNLDGGYIYTAGKCGLVPVLAENRKSSKHSSLDCVLRPTEGYLAVAVVKKANEGLTWNSLKDKKSCHTAVDRTAGWNIPMGLIVNQTGSCAFDEFFSQSCAPGADPKSRLCALCAGDDQGLDKCVPNSKEKYYGYTGAFRCLAEDVGDVAFVKNDTVWENTNGESTADWAKNLNREDFRLLCLDGTRKPVTEAQSCHLAVAPNHAVVSRSDRAAHVKQVLLHQQALFGKNGKNCPDKFCLFKSETKNLLFNDNTECLAKLGGRPTYEEYLGTEYVTAIANLKKCSTSPLLEACAFLTR | – | – | – | induces proliferation | substantially less marked | capable of inducing osteoblast differentiation | significantly increase | is endocytosed | stimulates proliferation of cultured osteoblastic cells of rat, mouse, and human origin potently and in a dose-dependent manner | mitogenic to chondrocytes | strongly inhibits osteoclastogenesis | does not affect | activates the p42/44 MAP kinase signaling pathway | inhibits apoptosis | dose-dependent and substantial increases | dose-dependent and substantial increases
